Reactivity (Au/ml data for 1 molecule are collected here from US20160159922A1.

This assay concerns the target citrullinated human fibrinogen peptide, residues 36-52 (cit-fib) (human). Put plainly: reactivity test against citrullinated peptide; arbitrary units relative to a serum pool standard; antibody at 5 ug/ml.

B1: ACPA11 (antibody, V domains shown)
VH: HLQLQESGPKLVKTSETLSLNCSVSRESIVRNDKFWGWVRQPPGKGLEWIGSINPLGRTFYTTSLKDRIRISFDTSEGYFSLSVASVTAADTAIYYCATDGEGVLFDEWSQGTLVTVSS
VL: QPVMTQPPSACGTPGQRVTIPCSGNTSNIGYNIVNWYQQVPGTAPKLLIYDNDKRPSGVPDRFSASKSVTSASLVISGLQSADEADYYCAVWDDDLSGVVIGEGTKLTVL
B1 registered a reactivity (Au/ml at 5 ug/ml) of 21 Au/ml.
